Reference: patent publication US20030129189A1, “Tumor necrosis factor-gamma” (priority 1994, published 2003)

Tests used:
Assay in all cases: flow cytometry on transiently transfected cells
[1] = target: T1, RANK on transiently transfected cells (UniProt Q9Y6Q6 30-616, limits assumed)
T1 construct: whole, on cells
T1 sequence (looked up): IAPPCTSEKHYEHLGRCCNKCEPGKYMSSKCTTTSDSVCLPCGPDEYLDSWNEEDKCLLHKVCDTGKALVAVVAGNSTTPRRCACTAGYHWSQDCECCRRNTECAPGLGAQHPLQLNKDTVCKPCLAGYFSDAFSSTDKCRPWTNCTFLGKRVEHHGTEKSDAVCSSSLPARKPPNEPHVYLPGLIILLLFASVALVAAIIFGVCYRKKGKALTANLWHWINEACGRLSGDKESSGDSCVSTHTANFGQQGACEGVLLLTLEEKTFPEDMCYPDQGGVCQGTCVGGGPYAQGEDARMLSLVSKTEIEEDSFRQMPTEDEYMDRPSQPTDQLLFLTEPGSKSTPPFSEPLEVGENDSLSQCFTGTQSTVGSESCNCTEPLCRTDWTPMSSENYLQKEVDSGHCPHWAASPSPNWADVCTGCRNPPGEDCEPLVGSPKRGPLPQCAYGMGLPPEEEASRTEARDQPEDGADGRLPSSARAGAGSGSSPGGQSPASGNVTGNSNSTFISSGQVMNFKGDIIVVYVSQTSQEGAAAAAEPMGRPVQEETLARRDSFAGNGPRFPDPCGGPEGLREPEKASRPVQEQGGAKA
Method: (§1) One million cells, in 0.1 ml of FACS buffer (PBS, 0.1% BSA, 0.1% NaN₃), were incubated with 0.1-1 microgram of protein or antibody at RT for 15 min. The cells were washed with 3 ml of FACS buffer, reacted with biotinylated primary antibody, and stained with PE-conjugated secondary antibody at RT for 15 min. Cells were then washed again, resuspended in 0.5 microgram/ml of propidium iodide, and live cells were gated and analyzed on a FACScan using the CellQuest software (BD Biosciences).

[2] = target: T2, AITR on transiently transfected cells (UniProt Q9Y5U5 26-241, limits assumed)
T2 construct: whole, on cells
T2 sequence (looked up): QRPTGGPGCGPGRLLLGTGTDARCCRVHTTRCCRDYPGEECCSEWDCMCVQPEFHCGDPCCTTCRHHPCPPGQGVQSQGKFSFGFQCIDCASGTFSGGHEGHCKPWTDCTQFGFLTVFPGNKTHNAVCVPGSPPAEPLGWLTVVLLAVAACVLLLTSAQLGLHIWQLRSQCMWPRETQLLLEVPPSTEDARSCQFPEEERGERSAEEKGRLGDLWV
Method: as §1

[3] = target: T3, CD30 on transiently transfected cells (UniProt P28908 19-595, limits assumed)
T3 construct: whole, on cells
T3 sequence (looked up): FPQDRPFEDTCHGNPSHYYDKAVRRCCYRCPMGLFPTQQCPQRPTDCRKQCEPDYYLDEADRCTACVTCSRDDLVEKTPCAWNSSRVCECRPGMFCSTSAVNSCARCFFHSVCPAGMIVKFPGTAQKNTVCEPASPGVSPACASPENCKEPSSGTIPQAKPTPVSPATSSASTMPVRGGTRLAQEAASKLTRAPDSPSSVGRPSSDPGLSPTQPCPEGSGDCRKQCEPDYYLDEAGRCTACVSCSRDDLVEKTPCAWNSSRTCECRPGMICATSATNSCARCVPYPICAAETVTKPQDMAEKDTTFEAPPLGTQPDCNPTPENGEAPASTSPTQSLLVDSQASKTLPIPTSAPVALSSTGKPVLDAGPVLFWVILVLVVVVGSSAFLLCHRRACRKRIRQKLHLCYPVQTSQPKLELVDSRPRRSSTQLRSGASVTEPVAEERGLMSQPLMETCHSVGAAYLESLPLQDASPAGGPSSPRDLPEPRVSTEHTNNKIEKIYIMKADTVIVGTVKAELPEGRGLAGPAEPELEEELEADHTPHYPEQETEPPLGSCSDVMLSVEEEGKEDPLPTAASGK
Method: as §1

[4] = target: T4, BCMA on transiently transfected cells (UniProt Q02223 1-184, limits assumed)
T4 construct: whole, on cells
T4 sequence (looked up): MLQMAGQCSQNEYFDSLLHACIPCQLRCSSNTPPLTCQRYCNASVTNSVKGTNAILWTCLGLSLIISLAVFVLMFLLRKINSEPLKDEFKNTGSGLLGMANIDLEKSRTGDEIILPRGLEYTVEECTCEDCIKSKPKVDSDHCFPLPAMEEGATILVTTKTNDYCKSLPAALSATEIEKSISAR
Method: as §1

[5] = target: T5, DcR1 on transiently transfected cells (UniProt O14798 26-236, limits assumed)
T5 construct: whole, on cells
T5 sequence (looked up): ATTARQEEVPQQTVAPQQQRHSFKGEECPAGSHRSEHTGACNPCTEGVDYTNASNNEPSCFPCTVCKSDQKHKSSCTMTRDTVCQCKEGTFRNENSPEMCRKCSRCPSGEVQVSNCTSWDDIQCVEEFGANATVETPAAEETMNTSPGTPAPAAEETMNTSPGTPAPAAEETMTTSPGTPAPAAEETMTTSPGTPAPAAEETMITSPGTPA
Method: as §1

[6] = target: T6, HveA on transiently transfected cells (UniProt Q92956 39-283, limits assumed)
T6 construct: whole, on cells
T6 sequence (looked up): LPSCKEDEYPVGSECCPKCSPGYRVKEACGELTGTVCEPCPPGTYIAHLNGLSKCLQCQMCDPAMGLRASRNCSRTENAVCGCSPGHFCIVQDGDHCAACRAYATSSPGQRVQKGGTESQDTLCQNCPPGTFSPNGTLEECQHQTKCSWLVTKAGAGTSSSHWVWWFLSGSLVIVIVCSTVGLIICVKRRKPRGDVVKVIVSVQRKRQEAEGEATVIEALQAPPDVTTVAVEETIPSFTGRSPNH
Method: as §1

[7] = target: T7, DcR2 on transiently transfected cells (UniProt Q9UBN6 56-386, limits assumed)
T7 construct: whole, on cells
T7 sequence (looked up): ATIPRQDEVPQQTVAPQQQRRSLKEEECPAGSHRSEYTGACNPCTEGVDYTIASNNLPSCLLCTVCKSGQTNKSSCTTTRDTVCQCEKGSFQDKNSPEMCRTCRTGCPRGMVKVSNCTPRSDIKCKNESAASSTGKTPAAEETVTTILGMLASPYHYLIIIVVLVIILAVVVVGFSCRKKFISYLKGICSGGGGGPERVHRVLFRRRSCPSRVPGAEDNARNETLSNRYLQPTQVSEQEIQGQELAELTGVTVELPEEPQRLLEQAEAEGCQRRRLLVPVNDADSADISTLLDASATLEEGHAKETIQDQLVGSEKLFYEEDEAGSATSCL
Method: as §1

Measured: binding result

B1: FLAG-tagged soluble TNF-gamma-beta (aa 72-251) (ligand)
chain: LKGQEFAPSHQQVYAPLRADGDKPRAHLTVVRQTPTQHFKNQFPALHWEHELGLAFTKNRMNYTNKFLLIPESGDYFIYSQVTFRGMTSECSEIRQAGRPNKPDSITVVITKVTDSYPEPTQLLMGTKSVCEVGSNWFQPIYLGAMFSLQEGDKLMVNVSDISLVDYTKEDKTFFGAFLL
notes: also called FLAG-TL1β; FLAG-TNF-gamma-beta; not shown: The N-terminal FLAG tag (pFLAG-CMV-1 vector) and any vector linker
no binding: [1] | [2] | [3] | [4] | [5] | [6] | [7]
